From PMC6112790, “MicroED structure of the NaK ion channel reveals a Na^+ partition process into the selectivity filter” (Communications Biology, 2018)

Molecular target: the molecule itself
Test: crystal structure; MicroED (electron diffraction, continuous rotation) of nano-crystals grown in Na+ buffers with MPD, protein in DM detergent; 11 crystals merged; 2.5 Å; space group I4; tetramer on the four-fold axis

B1: NaK–∆19 (NaK ion channel from Bacillus cereus with the first 19 residues truncated) (domain or fragment)
chain: KDKEFQVLFVLTILTLISGTIFYSTVEGLRPIDALYFSVVTLTTVGDGNFSPQTDFGKIFTILYIFIGIGLVFGFIHKLAVNVQLPSILSNRKKE
notes: NaK channel, Bacillus cereus, wild type with the first 19 residues truncated (about 10-kDa monomer); also called molA; molB
  stoichiometry N: 4
